The target of assay [1] is T1, recombinant purified human IL-12 p70 (human, UniProt P29459 23-219).
T1 sequence 1: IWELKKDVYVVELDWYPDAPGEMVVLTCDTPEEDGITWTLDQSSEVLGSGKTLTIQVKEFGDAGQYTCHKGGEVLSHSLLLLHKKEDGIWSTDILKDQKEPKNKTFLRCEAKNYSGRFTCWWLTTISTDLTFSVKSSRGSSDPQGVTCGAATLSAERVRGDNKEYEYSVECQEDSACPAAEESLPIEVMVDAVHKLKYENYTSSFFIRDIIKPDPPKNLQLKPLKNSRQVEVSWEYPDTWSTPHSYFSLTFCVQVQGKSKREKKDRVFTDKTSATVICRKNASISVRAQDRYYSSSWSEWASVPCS
T1 sequence 2: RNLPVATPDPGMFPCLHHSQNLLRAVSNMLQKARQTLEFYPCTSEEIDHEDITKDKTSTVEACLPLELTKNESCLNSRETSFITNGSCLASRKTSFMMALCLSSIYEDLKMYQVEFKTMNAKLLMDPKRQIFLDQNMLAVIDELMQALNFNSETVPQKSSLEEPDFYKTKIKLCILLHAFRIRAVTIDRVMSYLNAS
As to the kind of experiment: cell-based or functional assay.

Assay [2] has as its target T2, recombinant purified cyno IL-12 p70 (cynomolgus monkey).
T2 chain 1: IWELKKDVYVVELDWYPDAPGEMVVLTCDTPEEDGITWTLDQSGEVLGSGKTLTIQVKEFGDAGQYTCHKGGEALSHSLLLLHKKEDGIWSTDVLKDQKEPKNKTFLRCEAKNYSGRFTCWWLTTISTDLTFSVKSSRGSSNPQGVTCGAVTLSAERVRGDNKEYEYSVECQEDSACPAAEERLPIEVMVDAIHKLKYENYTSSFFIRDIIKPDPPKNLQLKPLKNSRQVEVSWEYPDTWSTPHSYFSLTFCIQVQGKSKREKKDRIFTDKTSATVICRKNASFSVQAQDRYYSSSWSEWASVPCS
T2 chain 2: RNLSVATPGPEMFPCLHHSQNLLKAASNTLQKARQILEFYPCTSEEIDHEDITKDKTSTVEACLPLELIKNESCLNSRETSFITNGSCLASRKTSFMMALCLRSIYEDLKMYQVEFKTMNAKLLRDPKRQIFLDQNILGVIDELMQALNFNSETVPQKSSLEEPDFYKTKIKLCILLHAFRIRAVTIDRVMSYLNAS
The assay can be described thus: cell-based or functional assay.

Assay [3] concerns the target T1, recombinant purified human IL-12 p70. The assay can be described thus: SPR (Biacore), mAb captured on anti-mouse IgG Fc, IL-12 p70 as analyte. As to the method: The BIACORE assay (Biacore, Inc, Piscataway, N.J.) determines the affinity of antibodies with kinetic measurements of on-, off-rate constants. Binding of antibodies to recombinant purified human IL-12 p70 or recombinant purified human IL-12 p40 were determined by surface plasmon resonance-based measurements with a Biacore® 3000 instrument (Biacore® AB, Uppsala, Sweden) using running HBS-EP (10 mM HEPES [pH 7.4], 150 mM NaCl, 3 mM EDTA, and 0.005% surfactant P20) at 25° C. All chemicals were obtained from Biacore® AB (Uppsala, Sweden) or otherwise from a different source as described in the text. Approximately 5000 RU of goat anti-mouse IgG, (Fcγ), fragment specific polyclonal antibody (Pierce Biotechnology Inc, Rockford, Ill.) diluted in 10 mM sodium acetate (pH 4.5) was directly immobilized across a CM5 research grade biosensor chip using a standard amine coupling kit according to manufacturer's instructions and procedures at 25 μg/ml. Unreacted moieties on the biosensor surface were blocked with ethanolamine. Modified carboxymethyl dextran surface in flowcell 2 and 4 was used as a reaction surface. Unmodified carboxymethyl dextran without goat anti-mouse IgG in flow cell 1 and 3 was used as the reference surface. For kinetic analysis, rate equations derived from the 1:1 Langmuir binding model were fitted simultaneously to association and dissociation phases of all eight injections (using global fit analysis) with the use of Biaevaluation 4.0.1 software. Purified antibodies were diluted in HEPES-buffered saline for capture across goat anti-mouse IgG specific reaction surfaces. Mouse antibodies to be captured as a ligand (25 μg/ml) were injected over reaction matrices at a flow rate of 5 μl/min. The association and dissociation rate constants, kₒₙ (unit M⁻¹ s⁻¹) and koff (unit s⁻¹) were determined under a continuous flow rate of 25 μl/min. Rate constants were derived by making kinetic binding measurements at ten different antigen concentrations ranging from 10-200 nM. The equilibrium dissociation constant (unit M) of the reaction between mouse antibodies and recombinant purified human IL-12 p70 or recombinant purified human IL-12 p40 was then calculated from the kinetic rate constants by the following formula: KD=koff/kₒₙ. Binding is recorded as a function of time and kinetic rate constants are calculated.
A general note: SPR reads the build-up and loss of mass on a sensor chip optically.

Assay [4] addresses T3, recombinant purified mouse IL-12 (Peprotech) (mouse, UniProt P43432 23-335; P43431 23-215).
T3 construct: Bought reagent; also called mu IL-12; murine IL-12
T3 sequence (looked up) 1: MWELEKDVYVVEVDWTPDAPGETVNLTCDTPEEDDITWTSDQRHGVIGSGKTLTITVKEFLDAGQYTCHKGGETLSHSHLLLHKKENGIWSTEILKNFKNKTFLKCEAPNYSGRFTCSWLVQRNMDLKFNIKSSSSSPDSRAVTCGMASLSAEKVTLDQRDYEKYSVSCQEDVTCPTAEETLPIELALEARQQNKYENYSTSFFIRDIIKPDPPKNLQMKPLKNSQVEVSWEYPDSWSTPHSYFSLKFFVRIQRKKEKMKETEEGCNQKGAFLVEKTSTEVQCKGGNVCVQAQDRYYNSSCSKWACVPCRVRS
T3 sequence (looked up) 2: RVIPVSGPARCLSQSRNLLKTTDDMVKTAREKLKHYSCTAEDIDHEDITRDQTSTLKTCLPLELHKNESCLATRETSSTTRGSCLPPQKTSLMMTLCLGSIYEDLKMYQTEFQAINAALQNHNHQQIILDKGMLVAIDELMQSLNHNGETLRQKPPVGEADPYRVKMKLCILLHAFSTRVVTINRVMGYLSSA
The assay can be described thus: direct ELISA, plate coated with 5 ug/ml recombinant mouse IL-12. As to the method:
To determine whether the ten monoclonal antibodies described above recognize murine IL-12, two ELISAs were set up. First, a direct ELISA was set up by directly coating ELISA plates with 5 ug/ml of recombinant purified mouse IL-12 (Peprotech). Murine-anti-human IL-12 p40 mAbs were prepared at various concentrations ranging from 3 to 200 ng/ml in PBS containing 0.1% BSA (Sigma, St. Louis, Mo.). 50 μl of each antibody dilution was added to the coated ELISA plate and incubated for 1 hour at room temperature. Wells were washed 3 times with PBS containing 0.05% Tween-20. Anti-mouse IgG-HRP antibody (R&D #HAF007, Minneapolis, Minn.) was diluted 1:2000 in PBS containing 0.1% BSA; 50 ul/well was added and the plates incubated for 1 hour at room temperature. Fifty microliters of TMB solution (Sigma # T0440, St. Louis, Mo.) was added to each well and incubated for 10 minutes at room temperature. The reaction was stopped by addition of 2N sulphuric acid. Plates were read spectrophotmetrically at a wavelength of 450 nm.

B1: murine anti-human IL-12p40 monoclonal antibody 1D4 (antibody, V domains shown)
VH: QVTLKESGPGILQPSQTLSLTCSFSGFSLRKSVMGVSWIRQPSGKGLEWLAHIYWDDDKYYNPSLKSRLTISKDPSRNQVFLKITSVDTADAATYYCTRRGIRSAMDYWGQGTSVTVSS
VL: SVVMTQTPKFLLVSAGDRVTITCKASQSVSNDVAWYQQKPGQSPKLLIYYASNRYTGVPDRFTGSGYGTDFTFIISTVRAEDLAVYFCQQDYNSPWTFGGGTKLEIKR
notes: Murine mAb purified from hybridoma supernatant
Consider B1, for which, in assay [1], the “Average IC50 (nM) Human IL-12, PHA blast IFN-γ assay” value is 0.031 nM. Moreover, in assay [2], the “Average IC50 (nM) Cyno IL-12, PHA blast IFN-γ assay” value stood at 0.078 nM. Besides, in assay [3], the Kd (usually the concentration at which binding is half-saturated) came out at 0.12 nM, the koff (commonly a measure of how fast the partners let go of each other) is 2.9e-05 s⁻¹ and the kon (usually the second-order rate constant of association) turned out to be 250000 M⁻¹ s⁻¹. The binding result in assay [4] is on record as “no binding (tested: 3 to 200 ng/ml mAb)”.

B2: murine anti-human IL-12p40 monoclonal antibody 5E8 (antibody, V domains shown)
VH: QIQLVQSGPELKKPGETVKISCKASGYSFTDYSMHWVKQAPGKGLKWMDWINTETGEPTYADDFKGRFAFSLETSASTAYLQINNLKNEDTATYFCSRRRYRAFDYWGQGTTLTVSS
VL: SIVMTQSPKFLLVSAGDRVTITCKASQSVSNDVAWYQQKLGQSPKLLIYYASNRYTGVPDRFTGSGYGTDFTFTINTVQAEDLAVYFCQQDYTSPYTFGGGTKLEIQR
notes: Murine mAb
In the case of B2, the “Average IC50 (nM) Human IL-12, PHA blast IFN-γ assay” value in assay [1] was 12 nM. In assay [3], the Kd was determined as 4 nM, the dissociation rate constant (koff) came to 0.0023 s⁻¹ and the kon came out at 570000 M⁻¹ s⁻¹. The binding result in assay [4] is on record as “no binding (tested: 3 to 200 ng/ml mAb)”.

B3: murine anti-human IL-12p40 monoclonal antibody 1A6 (antibody, V domains shown)
VH: QVTLKESGPGILKPSQTLSLTCSFSGFSLSTSGMGVSWIRQPSGKGLEWLAHIWWDGDNYYNPSLKSQLTISKDTSRNQVFLRIATVDTADTATYYCARRTRVNYAMDYWGQGTSVTVSS
VL: SVVMTQTPKFLLVSAGDRVTITCKASQSVSNDVAWFQQKPGQSPKLLIYYASNRYTGVPDRFTGSGYGTDFTFTISTVQAEDLAVYFCQQDYNSPWTFGGGTKLEIKR
notes: Murine mAb
Consider B3, for which the “Average IC50 (nM) Human IL-12, PHA blast IFN-γ assay” value in assay [1] was determined as 0.052 nM. The “Average IC50 (nM) Cyno IL-12, PHA blast IFN-γ assay” value in assay [2] was found to be 0.044 nM. In assay [3], the equilibrium dissociation constant (Kd) was 0.23 nM, the koff was determined as 3.5e-05 s⁻¹ and the association rate constant (kon) amounted to 150000 M⁻¹ s⁻¹. Moreover, the binding result in assay [4] was “no binding (tested: 3 to 200 ng/ml mAb)”.

B4: murine anti-human IL-12p40 monoclonal antibody 1H6 (antibody, V domains shown)
VH: EVKLVESGGGLVQPGGSRKLSCAASGFTFSDYGMVWVRQAPGKGLEWVAYISSGSSTIHYADTMKGRFTISRDNPKNTLFLQMSSLRSEDTAMYYCARRHYYAMDYWGQGTSVTVSS
VL: SFVMTQTPKFLLVSAGDRVTITCKASQSVSNDVAWYQQKPGQSPKLLIYYASNRYTGVPDRFTGTGYGTDFTFTISTVQAEDLAVYFCQQDYTSPFTFGSGTKLEIKR
notes: Murine mAb
B4: the “Average IC50 (nM) Human IL-12, PHA blast IFN-γ assay” value in assay [1] was found to be 0.69 nM. Further, the “Average IC50 (nM) Cyno IL-12, PHA blast IFN-γ assay” value in assay [2] turned out to be 1.6 nM. For the same molecule, in assay [3], the equilibrium dissociation constant (Kd) was 0.25 nM, the koff was found to be 9.9e-05 s⁻¹ and the kon turned out to be 430000 M⁻¹ s⁻¹. In addition, the binding result in assay [4] was “no binding (tested: 3 to 200 ng/ml mAb)”.

B5: murine anti-human IL-12p40 monoclonal antibody 4B4 (antibody, V domains shown)
VH: QVTLKESGPGILKPSQTLSLTCSLSGFSLSTSGMGVSWIRQPSGKGLEWLAHIWWDGDSYSNPSLRSRLTISRDTSRNQVFLRIATVDTADTATYYCARRTRVNYAMDYWGQGTSVTVSS
VL: SVVMTQTPKFLLVSAGDRVTMTCKASQSVSNDVAWFQQKPGQSPKLLIYYASNRYTGVPDRFTGSGYGTDFTFTISTVQAEDLAVYFCQQDYNSPWTFGGGTKLEIKR
notes: Murine mAb
Turning to B5, in assay [1], the “Average IC50 (nM) Human IL-12, PHA blast IFN-γ assay” value was 0.039 nM. Besides, the “Average IC50 (nM) Cyno IL-12, PHA blast IFN-γ assay” value in assay [2] stood at 0.028 nM. For the same molecule, in assay [3], the equilibrium dissociation constant (Kd) came out at 0.1 nM, the off-rate (koff) was found to be 1.4e-05 s⁻¹ and the kon was found to be 130000 M⁻¹ s⁻¹. Besides, the binding result in assay [4] was “no binding (tested: 3 to 200 ng/ml mAb)”.

B6: murine anti-human IL-12p40 monoclonal antibody 7G3 (antibody, V domains shown)
VH: EVQLQQSGAEFVRSGASVKLSCTASGLNIKDYYIHWVKQRPEQVLDWIGWIDPENGYSEYAPRFQDKATMTADTSSNTAYLHLSSLTSEDTAVYYCNPGELARYFDYWGQGTTLTVSS
VL: DIVLSQSPATLSVTPGDSVSLSCRASQSISKNLHWYQQKSHESPRLLIKYTSQSISGIPSRFSGSGSGTDFTLSINSVETEDFGMYFCQQSISWPLTFGAGTKLELKR
notes: Murine mAb
Consider B6, for which the “Average IC50 (nM) Human IL-12, PHA blast IFN-γ assay” value in assay [1] came out at 0.047 nM. Besides, the “Average IC50 (nM) Cyno IL-12, PHA blast IFN-γ assay” value in assay [2] is above 20 nM. Further, in assay [3], the Kd came to 0.27 nM, the koff turned out to be 0.00028 s⁻¹ and the on-rate (kon) turned out to be 1.1e+06 M⁻¹ s⁻¹. In addition, in assay [4], the binding result is “no binding (tested: 3 to 200 ng/ml mAb)”.

B7: murine anti-human IL-12p40 monoclonal antibody 3A11 (antibody, V domains shown)
VH: EVQLQQSGADLEKPGASVKLSCTASGFNIKDTFMHWVKQRPEQGLEWIGRIDPANGHTKYDPKFQGKATITADTSSNTAYLQLSSLTSEDTAVYYCARWGQFGLLWNAMDYWGQGTSVTVSS
VL: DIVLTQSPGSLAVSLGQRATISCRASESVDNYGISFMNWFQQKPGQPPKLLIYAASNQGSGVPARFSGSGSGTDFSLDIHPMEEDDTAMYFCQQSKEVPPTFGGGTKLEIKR
notes: Murine mAb
For B7, the “Average IC50 (nM) Human IL-12, PHA blast IFN-γ assay” value in assay [1] turned out to be 3.4 nM. In assay [3], the equilibrium dissociation constant (Kd) came out at 1.2 nM, the dissociation rate constant (koff) is 0.00019 s⁻¹ and the on-rate constant (kon) came to 150000 M⁻¹ s⁻¹. Also, in assay [4], the binding result is “no binding (tested: 3 to 200 ng/ml mAb)”.

The values above are taken from patent publication US20140178332A1 (published 2014).
